Assay results from patent US20250179196A1 (Janssen / Centocor, published 2025).
Changes are numbered by the printed parent chain.

Legend:
[1] = biological target: T1, human IL-23R extracellular domain (ECD) protein (human, UniProt Q5VWK5 24-355); assay: column 'Affinity to hu IL-23R ECD' (summary of SPR data)
T1 construct: Recombinant ECD; also called hu IL-23R ECD
T1 sequence: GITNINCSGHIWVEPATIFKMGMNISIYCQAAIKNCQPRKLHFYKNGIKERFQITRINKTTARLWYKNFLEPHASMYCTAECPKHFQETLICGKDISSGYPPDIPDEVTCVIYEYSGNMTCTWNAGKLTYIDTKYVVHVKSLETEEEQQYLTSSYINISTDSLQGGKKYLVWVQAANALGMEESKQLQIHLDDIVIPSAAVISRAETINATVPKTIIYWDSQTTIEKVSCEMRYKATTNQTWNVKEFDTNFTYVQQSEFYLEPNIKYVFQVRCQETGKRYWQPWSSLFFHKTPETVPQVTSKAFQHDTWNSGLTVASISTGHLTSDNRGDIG

[2] = biological target: T2, human IL-23R expressed on the cell surface of stably transfected iLite and HEK cell lines (human, UniProt Q5VWK5 24-629); assay: flow cytometry on human IL-23R HEK cells, Expt D (8-point, 96well)
T2 construct: whole, on cells; Same receptor on two transfected cell lines; the cell line is named under assay; also called human IL-23R iLite cells; human IL-23R HEK cells
T2 sequence (looked up): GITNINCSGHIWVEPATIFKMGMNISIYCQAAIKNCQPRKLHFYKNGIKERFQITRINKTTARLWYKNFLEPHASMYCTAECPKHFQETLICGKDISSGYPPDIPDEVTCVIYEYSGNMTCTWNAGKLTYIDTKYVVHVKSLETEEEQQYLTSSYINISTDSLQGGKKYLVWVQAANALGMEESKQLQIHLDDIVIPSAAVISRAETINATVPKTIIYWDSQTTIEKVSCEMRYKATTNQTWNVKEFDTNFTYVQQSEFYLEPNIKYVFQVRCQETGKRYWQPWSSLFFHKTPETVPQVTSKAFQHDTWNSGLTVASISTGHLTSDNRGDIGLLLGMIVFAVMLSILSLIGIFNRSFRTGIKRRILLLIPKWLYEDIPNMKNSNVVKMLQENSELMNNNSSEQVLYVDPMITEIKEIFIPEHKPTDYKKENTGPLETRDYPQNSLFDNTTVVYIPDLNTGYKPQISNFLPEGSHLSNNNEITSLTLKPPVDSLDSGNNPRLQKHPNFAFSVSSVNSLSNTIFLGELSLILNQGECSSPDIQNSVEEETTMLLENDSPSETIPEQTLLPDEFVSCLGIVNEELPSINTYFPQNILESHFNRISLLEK
Outline: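 Serially diluted IL-23R mAbs bound to mixed HEK-IL-23R and parental HEK cells for 30 min at 37 °C, in duplicate. After washes, 647 detection antibody geometric MFI measured on single viable (Sytox Green-negative) cells and fitted to a variable-slope dose-response against log mAb concentration.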

[3] = biological target: T2, human IL-23R expressed on the cell …; assay: flow cytometry on human IL-23R HEK cells, Expt E (11-point, 384well)
Outline: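 Antibody bound to HEK-IL-23R cells 30 min at 37 °C over 11 concentrations; after washes, Sytox Green added and cells run on iQue. Geometric MFI of 647 detection antibody on single viable cells fitted by variable-slope dose–response.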

[4] = biological target: T2, human IL-23R expressed on the cell …; assay: flow cytometry on human IL-23R HEK cells, Expt D (8-point, 96well); legend: N-No cell binding observed
Experimental: HEK-IL-23R cell concentration response mAb binding (8-point, 96-well assay). […] HEK-IL-23R and HEK-parental cells (12.5 μL of each, 120000 cells total) were plated in 2× replicate on 96-well V-bottom plates (Corning, Cat #3357) into 37° C. warmed Assay medium containing serially diluted IL-23R mAbs to a final volume of 150 μL. IL-23R mAbs were allowed to bind to cells for 30 minutes, at 37° C. […] Cells were next washed twice in ice-cold stain buffer, then resuspended in a final volume of 30 μL with Sytox Green viability dye (ThermoFisher, Cat #S7020). Plates were kept on ice until run for analysis on the iQue. All washes were performed by centrifugation (800 rcf, 3 minutes) followed by flick decantation to remove supernatants. Cell-binding to HEK-IL-23R cells was measured with FlowJo, by gating for single, viable cells and determining the geometric mean fluorescence intensity (MFI) for the 647 detection antibody. Geometric mean fluorescence intensities were plotted over log mAb concentrations fitted with a dose response curve with variable slope using GraphPad Prism.

[5] = biological target: T2, human IL-23R expressed on the cell …; assay: flow cytometry on human IL-23R iLite cells, Expt A (1-point)
Experimental: Human IL-23R iLiTe cell single concentration mAb Binding. Anti-IL-23R mouse IgG₂ₐ mAbs derived from phage panning were tested for binding to human IL-23R expressing iLiTe cells, where a PE conjugated anti mouse secondary antibody detected mAbs bound to the receptor on the cells. […] The next day 100,000 cells were added to each well of a 96 well V bottom plate (Costar, Catalog #3357), centrifuged at 450× gravity for 2 minutes, and then supernatants were decanted. […] Antibodies diluted to 3 μg/mL in Stain Buffer (BSA) (BD Pharmagen, Catalog #554657) were added at 100 μL/well and incubated on ice for 50 minutes, then plates were centrifuged and supernatants were decanted. […] Cells were washed by adding 100 μL/well of Stain Buffer followed by centrifugation and decanting of the supernatants. Cells were resuspended in 100 μL/well of Stain Buffer and analyzed on the Becton Dickenson LSR II FACS instrument with HTS module. Data was analyzed using FlowJo software (Treestar) to obtain geometric mean fluorescence intensities.

[6] = biological target: T2, human IL-23R expressed on the cell …; assay: flow cytometry on human IL-23R iLite cells, Expt B (1-point)
Experimental: Human IL-23R iLiTe cell single concentration mAb Binding. Anti-IL-23R mouse IgG₂ₐ mAbs derived from phage panning were tested for binding to human IL-23R expressing iLiTe cells, where a PE conjugated anti mouse secondary antibody detected mAbs bound to the receptor on the cells. […] The next day 100,000 cells were added to each well of a 96 well V bottom plate (Costar, Catalog #3357), centrifuged at 450× gravity for 2 minutes, and then supernatants were decanted. […] Cells were washed by adding 100 μL/well of Stain Buffer followed by centrifugation and decanting of the supernatants. Cells were resuspended in 100 μL/well of Stain Buffer and analyzed on the Becton Dickenson LSR II FACS instrument with HTS module. Data was analyzed using FlowJo software (Treestar) to obtain geometric mean fluorescence intensities.

[7] = biological target: T2, human IL-23R expressed on the cell …; assay: flow cytometry on human IL-23R iLite cells, Expt C (12-point), Gate 2
Experimental: (§1) Human IL-23R iLiTe cell concentration response mAb binding. […] The next day 100,000 cells were added to each well of a 96 well V bottom plate (Costar, Catalog #3357), centrifuged at 450× gravity for 2 minutes, and then supernatants were decanted. Antibodies were diluted in Stain Buffer (BSA) (BD Pharmagen, Catalog #554657) and added at 50 μL/well, and mixed. Plates were incubated on ice for 50 minutes, then plates were centrifuged and supernatants were decanted. […] Cells were washed by adding 200 μL/well of Stain Buffer followed by centrifugation and decanting of the supernatants. Cells were resuspended in 100 μL/well of Stain Buffer, transferred in quadruplicate to a 384 well plate (Greiner, Catalog #781281) and analyzed on the Becton Dickenson LSR II FACS instrument with HTS module. Data was analyzed using FlowJo software (Treestar) to obtain geometric mean fluorescence intensities, and geometric mean fluorescence intensities were plotted over log mAb concentrations fitted with a sigmoidal dose response curve with variable slope using GraphPad Prism.

[8] = biological target: T2, human IL-23R expressed on the cell …; assay: flow cytometry on human IL-23R iLite cells, Expt C (12-point), Gate 1 + 2
Experimental: as §1

B1: I23RB153 (antibody, mouse IgG2a, kappa, V domains shown)
VH: EVKLVESGGGLVQPGGSLKLSCAASGFTFSSDTMSWVRQTPEKRLELVAEISSNGGSTYHIDTVKGRFTISRDNAKNTLYLQMSSLKSEDTAMYYCASPGYPWFAYWGQGTTVTVSA
VL: DIVMTQSHRFMSTSVGERVSITCKASQDVGNAVAWYQQKPGQSPKLLIYWTSTRHNGVPDRFTGSGSGTDFTLTISNVQGEDLADYFCQQYNRYPLTFGSGTKLEIKR
notes: immunization; mouse IgG2a/kappa
[1]
  Kd: 2 nM
[2]
  EC50: 4.4 nM
[3]
  EC50: > 50 nM
  MFI (6.4 nM): 52800 MFI

B2: I23RB189 (antibody, mouse IgG2a, kappa, V domains shown)
VH: DVQLQESGPDLVKPSQSLSLTCTVTGYSITSGYNWHWIRQFPGNKLEWMGYIHSSGTTNYSPSLRSRLSITRDTSKNQFFLQLNSVTTEDTATYYCTRQLGLKAMEYWGQGTTLTVSS
VL: DIVLTQSPKSMSMSVGERVTLSCKASENVGTYVSWYQQKPEQSPKLLMYGASNRYTGVPDRFTGSGSATDFTLTISSVQAEDLADYHCGQSYSYPPTFGGGTKLEIKR
notes: as for B1
[4]
  binding result: no binding

B3: I23RB149 (antibody, mouse IgG2a, kappa, V domains shown)
VH: B2 VH with S54F, G56D, T57R, S61N, R65K, L68I, T88S, T97S, M105L, E106D
VL: DVQMIQSPLSLPVSLGDQASISCRSSQSLVHSNGNTYLHWYLQKPGQSPKLLIYKVSNRFSGVPDRFSGSGSGTDFTLKISRVEAEDLGVYFCSQSTHVPLTFGAGTRLEIKR
notes: as for B1
[4]
  binding result: no binding

B4: I23RB2 (antibody, mouse IgG2a, kappa, V domains shown)
VH: QVQLVQSGAEVKKPGSSVKVSCKASGGTFSSYAISWVRQAPGQGLEWMGGIIPIFGTANYAQKFQGRVTITADESTSTAYMELSSLRSEDTAVYYCARDRYRYLGANGFDYWGQGTLVTVSS
VL: EIVLTQSPATLSLSPGERATLSCRASQSVSSYLAWYQQKPGQAPRLLIYDASNRATGIPARFSGSGSGTDFTLTISSLEPEDFAVYYCQQRSNWPLTFGQGTKVEIKR
notes: phage display; human V, mouse IgG2a/kappa
[5]
  MFI @ 20 nM: 4110 MFI
[6]
  MFI @ 0.7 nM: 670 MFI
[7]
  EC50: 1.11 nM
[8]
  EC50: 1.09 nM

B5: I23RB328 (antibody, mouse IgG2a, kappa, V domains shown)
VH: QVQLVQSGAEVKKPGSSVKVSCKASGGTFSSYAISWVRQAPGQGLEWMGGIIPIFGTANYAQKFQGRVTITADESTSTAYMELSSLRSEDTAVYYCARGRYIRSYDYFDYWGQGTLVTVSS
VL: B4 VL with I58V, S67T, E79Q, F83V, S92N, N93S, W94T
notes: as for B4
[4]
  binding result: no binding

B6: I23RB9 (antibody, mouse IgG2a, kappa, V domains shown)
VH: QVQLVQSGAEVKKPGSSVKVSCKASGGTFSSYAISWVRQAPGQGLEWMGGIIPIFGTANYAQKFQGRVTITADESTSTAYMELSSLRSEDTAVYYCARDRSYSYGLSGLGYYGFDYWGQGTLVTVSS
VL: B4 VL
notes: as for B4
[5]
  MFI @ 20 nM: 86 MFI

B7: I23RB330 (antibody, mouse IgG2a, kappa, V domains shown)
VH: B6 VH
VL: B4 VL with W94T
notes: as for B4
[4]
  binding result: no binding

B8: I23RB332 (antibody, mouse IgG2a, kappa, V domains shown)
VH: QVQLQQPGAELVMPGASVKLSCKASGYTFTSYWMHWVKQRPGQGLEWIGEIDPSDSYTNYNQKFKGKSTLTVDKSSSTAYMQLSSLTSEDSAVYYCARSYAFDYWGQGTTVTVSS
VL: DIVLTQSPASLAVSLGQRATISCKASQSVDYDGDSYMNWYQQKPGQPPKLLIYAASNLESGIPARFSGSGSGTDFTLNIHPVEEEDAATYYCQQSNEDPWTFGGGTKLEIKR
notes: phage display; mouse V, mouse IgG2a/kappa
[4]
  binding result: no binding

B9: I23RB104 (antibody, mouse IgG2a, kappa, V domains shown)
VH: EVKLVESGGGLVKPGGSLKLSCAASGFTFSSYAMSWVRQTPEKRLDWVASISTGGSTYYPDSVKGGFTISRDIARNTLSLQMTSLRSEDTAMYYCARGPHYYGGSYPFAYWGQGTTLTVSS
VL: DIQMTQSPASLSVSVGETVTITCRASENIYSNLAWYQQKQGKSPQLLVYAATNLADGVPSRFSGSGSGTQYSLKINSLQSEDFGSYYCQHFWGTPPTFGSGTKLEIKR
notes: as for B1
[4]
  binding result: no binding

B10: I23RB278 (antibody, mouse IgG2a, kappa, V domains shown)
VH: EVQLLESGGGLVQPGGSLRLSCAASGFTFSSYAMSWVRQAPGKGLEWVSAISGSGGSTYYADSVKGRFTISRDNSKNTLYLQMNSLRAEDTAVYYCVRGGSLGGGFYFDYWGQGTLVTVSS
VL: not shown
notes: as for B4
[4]
  binding result: no binding

B11: I23RB6 (antibody, mouse IgG2a, kappa, V domains shown)
VH: B5 VH
VL: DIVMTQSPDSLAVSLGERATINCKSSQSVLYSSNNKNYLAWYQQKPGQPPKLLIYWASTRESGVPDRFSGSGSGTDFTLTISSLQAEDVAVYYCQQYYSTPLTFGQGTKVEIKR
notes: as for B4
[5]
  MFI @ 20 nM: 139 MFI
